Results on four molecules are retold here after patent US20150299708, “CD133 APTAMERS FOR DETECTION OF CANCER STEM CELLS” (Deakin University, published 2015).

Data set [1] deals with CD133-negative cell surface (HEK293T or T98G; no CD133) (Homo sapiens). As to the kind of experiment: flow. The note with it: 2'-F pyrimidines, 3'-inverted dT, 37 C.
In data set [2] the target is T1, CD133 (prominin-1) (Homo sapiens, UniProt O43490 O43490:20-865).
T1 sequence: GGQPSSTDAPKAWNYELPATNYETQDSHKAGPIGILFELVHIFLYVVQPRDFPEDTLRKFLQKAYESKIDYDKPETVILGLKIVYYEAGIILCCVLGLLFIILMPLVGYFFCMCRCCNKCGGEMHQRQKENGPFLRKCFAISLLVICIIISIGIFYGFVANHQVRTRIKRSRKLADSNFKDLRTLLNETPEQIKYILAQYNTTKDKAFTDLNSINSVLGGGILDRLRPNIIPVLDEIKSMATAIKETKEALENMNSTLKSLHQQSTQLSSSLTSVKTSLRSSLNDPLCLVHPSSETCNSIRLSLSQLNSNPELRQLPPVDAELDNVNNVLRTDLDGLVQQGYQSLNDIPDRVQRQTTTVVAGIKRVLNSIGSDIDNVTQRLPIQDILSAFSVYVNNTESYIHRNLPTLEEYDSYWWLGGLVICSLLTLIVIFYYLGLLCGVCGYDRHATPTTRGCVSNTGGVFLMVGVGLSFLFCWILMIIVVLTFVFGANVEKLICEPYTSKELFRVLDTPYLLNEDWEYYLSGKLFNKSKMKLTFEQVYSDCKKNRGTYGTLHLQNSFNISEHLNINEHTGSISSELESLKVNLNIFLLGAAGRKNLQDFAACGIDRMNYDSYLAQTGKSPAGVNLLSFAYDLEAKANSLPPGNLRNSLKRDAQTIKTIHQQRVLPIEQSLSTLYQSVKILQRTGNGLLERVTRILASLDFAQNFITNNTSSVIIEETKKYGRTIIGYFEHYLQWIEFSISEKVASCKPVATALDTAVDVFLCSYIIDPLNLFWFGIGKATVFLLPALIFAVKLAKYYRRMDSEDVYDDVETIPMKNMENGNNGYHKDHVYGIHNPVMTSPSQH
As to the kind of experiment: flow; HT-29 cells; 37 C 30 min, DPBS + MgCl2, tRNA, salmon sperm DNA. To be noted: tags: endogenous CD133 on CD133-positive HT-29 or Hep3B cells (ATCC); label: 5'-DY647. The source says:
(§1) CCCTCCTACATAGGGAGGAACGAGTTACTATAG -3′, and antisense oligonucleotide, 5′-CTATAGTAACTCGTTCCTCCCTATGTAGGAGGGTGGGTTGAGCGTTTATTCTTGTCTC -3′; CD133-1-2 (2nd truncation) was derived from a sense oligonucleotide: 5′-TAATACGACTCACTATAGCTCAACCCACCCTCCTACATAGGGAGGAACGAGT-3′and an antisense oligonucleotide, 5′-ACTCGTTCCTCCCTATGTAGGAGGGTGGGTTGAGC -3′; CD133-1-2-1 (3rd Truncation) was derived from a sense oligonucleotide, 5′-TAATACGACTCACTATACCACCCTCCTACATAGGGTGG-3′ and an antisense oligonucleotide, 5′-CCACCCTATGTAGGAGGGTGG-3′; and CD133-1-2-2 (4th Truncation) was derived from a sense oligonucleotide, TAATACGACTCACTATACCCTCCTACATAGGG-3′ and an antisense oligonucleotide, 5′-CCC TAT GTA GGA GGG-3′. CD133-2-1 (1st Truncation) was derived from a sense oligonucleotide 5′-TAATACGACTCACTATACAGAACGTATACTATTCTG-3′ and an antisense oligonucleotide, 5′-CAG AAT AGT ATA CGT TCT G-3′ (T7 RNA promoter sequence is underlined). […] The binding affinities of these two aptamers and a negative control aptamer was determined using CD133 positive (HT-29 and Hep3B) and CD133 negative cell lines (T98G and HEK293T). […]

Data set [3] deals with T1, CD133 (prominin-1). As to the kind of experiment: flow; Hep3B cells; 37 C 30 min, DPBS + MgCl2. The note with it: tags: endogenous CD133 on CD133-positive HT-29 or Hep3B cells (ATCC); label: 5'-DY647.
Text: as §1

The target of data set [4] is T1, CD133 (prominin-1). As to the kind of experiment: flow; HT-29 cells; 37 C 30 min, DPBS + MgCl2. The note with it: tags: endogenous CD133 on CD133-positive HT-29 or Hep3B cells (ATCC); label: 5'-DY647.
Text: as §1

The Kd is the free concentration of one partner at which half of the binding sites on the other are occupied at equilibrium, for simple one-to-one binding. As for CAGAACGUAUACUAUUCUG [CD133-2-1], the Kd in data set [1] (CD133-negative HEK293T cells) came to 1740 µM; in data set [1] (CD133-negative T98G cells), 4.76 µM.
In the same order, the values of CCCUCCUACAUAGGG [CD133-1-2-2] are 120 µM and 275 µM.
Turning to CCCUCCUACAUAGGG (ssRNA, 2'-F pyrimidines; 3'-inverted dT) [CD133-1-2-2], the Kd in data set [2] was found to be 0.082 µM; in data set [3], 0.032 µM.
Take CAGAACGUAUACUAUUCUG (ssRNA, 2'-F pyrimidines; 3'-inverted dT) [CD133-2-1]: the equilibrium dissociation constant (Kd) in data set [4] is 0.145 µM; in data set [3], 0.052 µM.
